Experimental data published in PMC7166090, “A bacteriophage mimic of the bacterial nucleoid-associated protein Fis” (Biochemical Journal, 2020).

Key:
[1] = target: His-NinH S29A R30A (bacteriophage λ) (UniProt P03771); test: AUC; sedimentation velocity, ~0.6 mg/ml protein, 4°C, 50 000 rpm, scans at 260 and 280 nm, SEDFIT
His-NinH S29A = target: T1, His-NinH S29A (Bacteriophage lambda (cI857 Sam7), UniProt P03771 1-68, A15T;S29A); test: as above
T1 sequence: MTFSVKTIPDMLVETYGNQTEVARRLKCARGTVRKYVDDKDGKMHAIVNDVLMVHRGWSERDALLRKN

His-NinH N18A = target: T2, His-NinH N18A (Bacteriophage lambda (cI857 Sam7), UniProt P03771 1-68, A15T;N18A); test: as above
T2 sequence: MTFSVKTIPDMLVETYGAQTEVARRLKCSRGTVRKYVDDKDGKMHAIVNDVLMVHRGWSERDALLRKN

His-NinH R56A = target: T3, His-NinH R56A (Bacteriophage lambda (cI857 Sam7), UniProt P03771 1-68, A15T;R56A); test: as above
T3 sequence: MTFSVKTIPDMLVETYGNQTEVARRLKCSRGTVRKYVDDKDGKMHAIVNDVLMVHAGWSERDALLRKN

His-NinH K35A = target: T4, His-NinH K35A (Bacteriophage lambda (cI857 Sam7), UniProt P03771 1-68, A15T;K35A); test: as above
T4 sequence: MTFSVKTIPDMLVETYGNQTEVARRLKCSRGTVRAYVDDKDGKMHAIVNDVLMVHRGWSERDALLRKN

His-NinH T32A = target: T5, His-NinH T32A (Bacteriophage lambda (cI857 Sam7), UniProt P03771 1-68, A15T;T32A); test: as above
T5 sequence: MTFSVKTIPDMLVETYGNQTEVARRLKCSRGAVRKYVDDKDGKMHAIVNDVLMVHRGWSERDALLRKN

[2] = target: His-NinH R30A (bacteriophage λ) (UniProt P03771); test: as above
NinH (native, untagged) [3] = target: T6, NinH (native, untagged) (Bacteriophage lambda (cI857 Sam7), UniProt P03771 1-68, A15T); test: fluorescence anisotropy; Hill 2.23; dimer concentration; MST: PBS pH 7.4 + 0.05% Tween-20, 22 C; anisotropy: 6.7 mM Tris-HCl pH 8.0, 3.3 nM (so in the source) sodium acetate, 2 mM EDTA, 25 C; EMSA (32P): 50 mM Tris-HCl pH 8.0, 5 mM EDTA, 1 mM DTT, 5% glycerol, 100 ug/ml BSA, on ice; EMSA (Cy520): PBS pH 7.4, room temp; conditions: protein: recombinant; tags: none; chain copies: 2; label: 3'-fluorescein (C6 linker) on strand 1; blunt
T6 sequence: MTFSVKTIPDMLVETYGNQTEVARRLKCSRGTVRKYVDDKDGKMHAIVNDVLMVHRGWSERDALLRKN

His-NinH wt [4] = target: T7, His-NinH wt (Bacteriophage lambda (cI857 Sam7), UniProt P03771 1-68, A15T); test: fluorescence anisotropy; Hill 1.985; dimer concentration; MST: PBS pH 7.4 + 0.05% Tween-20, 22 C; anisotropy: 6.7 mM Tris-HCl pH 8.0, 3.3 nM (so in the source) sodium acetate, 2 mM EDTA, 25 C; EMSA (32P): 50 mM Tris-HCl pH 8.0, 5 mM EDTA, 1 mM DTT, 5% glycerol, 100 ug/ml BSA, on ice; EMSA (Cy520): PBS pH 7.4, room temp; conditions: protein: recombinant; tags: N-His6; chain copies: 2; label: 3'-fluorescein (C6 linker) on strand 1; blunt
T7 sequence: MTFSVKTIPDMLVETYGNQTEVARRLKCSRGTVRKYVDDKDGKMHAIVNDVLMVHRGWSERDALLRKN

NinH (native, untagged) [5] = target: T6, NinH (native, untagged); test: EMSA; two complexes; MST: PBS pH 7.4 + 0.05% Tween-20, 22 C; anisotropy: 6.7 mM Tris-HCl pH 8.0, 3.3 nM (so in the source) sodium acetate, 2 mM EDTA, 25 C; EMSA (32P): 50 mM Tris-HCl pH 8.0, 5 mM EDTA, 1 mM DTT, 5% glycerol, 100 ug/ml BSA, on ice; EMSA (Cy520): PBS pH 7.4, room temp; conditions: protein: recombinant; tags: none; chain copies: 2; label: 5'-32P on strand 1; blunt
NinH (native, untagged) [6] = target: T6, NinH (native, untagged); test: EMSA; similar to DS60; MST: PBS pH 7.4 + 0.05% Tween-20, 22 C; anisotropy: 6.7 mM Tris-HCl pH 8.0, 3.3 nM (so in the source) sodium acetate, 2 mM EDTA, 25 C; EMSA (32P): 50 mM Tris-HCl pH 8.0, 5 mM EDTA, 1 mM DTT, 5% glycerol, 100 ug/ml BSA, on ice; EMSA (Cy520): PBS pH 7.4, room temp; conditions: protein: recombinant, tags: none, chain copies: 2, label: 5'-32P on strand 1
NinH (native, untagged) [7] = target: T6, NinH (native, untagged); test: EMSA; affinity similar to DS60, more second complex; MST: PBS pH 7.4 + 0.05% Tween-20, 22 C; anisotropy: 6.7 mM Tris-HCl pH 8.0, 3.3 nM (so in the source) sodium acetate, 2 mM EDTA, 25 C; EMSA (32P): 50 mM Tris-HCl pH 8.0, 5 mM EDTA, 1 mM DTT, 5% glycerol, 100 ug/ml BSA, on ice; EMSA (Cy520): PBS pH 7.4, room temp; conditions: protein: recombinant, tags: none, chain copies: 2, label: 5'-32P on strand 1
[8] = target: the molecule itself; test: SAXS; His-NinH in solution at 4 mg/ml, Xeuss 2.0 laboratory SAXS system
His-NinH wt [9] = target: T7, His-NinH wt; test: EMSA; two complexes; MST: PBS pH 7.4 + 0.05% Tween-20, 22 C; anisotropy: 6.7 mM Tris-HCl pH 8.0, 3.3 nM (so in the source) sodium acetate, 2 mM EDTA, 25 C; EMSA (32P): 50 mM Tris-HCl pH 8.0, 5 mM EDTA, 1 mM DTT, 5% glycerol, 100 ug/ml BSA, on ice; EMSA (Cy520): PBS pH 7.4, room temp; conditions: protein: recombinant; tags: N-His6; chain copies: 2; label: 5'-32P on strand 1; blunt
His-NinH wt [10] = target: T7, His-NinH wt; test: EMSA; single complex; MST: PBS pH 7.4 + 0.05% Tween-20, 22 C; anisotropy: 6.7 mM Tris-HCl pH 8.0, 3.3 nM (so in the source) sodium acetate, 2 mM EDTA, 25 C; EMSA (32P): 50 mM Tris-HCl pH 8.0, 5 mM EDTA, 1 mM DTT, 5% glycerol, 100 ug/ml BSA, on ice; EMSA (Cy520): PBS pH 7.4, room temp; conditions: protein: recombinant; tags: N-His6; chain copies: 2; label: 5'-32P on strand 1; fork 1:2, 31 bp duplex

His-NinH S29A R30A (from UniProt P03771 1-68) (natural protein)
stoichiometry N [1]: 2

His-NinH S29A (from UniProt P03771 1-68) (natural protein)
stoichiometry N (His-NinH S29A): 2

His-NinH N18A (from UniProt P03771 1-68) (natural protein)
stoichiometry N (His-NinH N18A): 2

His-NinH R56A (from UniProt P03771 1-68) (natural protein)
stoichiometry N (His-NinH R56A): 2

His-NinH K35A (from UniProt P03771 1-68) (natural protein)
stoichiometry N (His-NinH K35A): 2

His-NinH T32A (from UniProt P03771 1-68) (natural protein)
stoichiometry N (His-NinH T32A): 2

His-NinH R30A (from UniProt P03771 1-68) (natural protein)
stoichiometry N [2]: 2

B1: DS20 (o-FLU20/o-SS20) (dsDNA)
DNA 1: TGGGTCAACGTGGGCAAAGA
DNA 2: TCTTTGCCCACGTTGACCCA
Kd (NinH (native, untagged) [3]): ~57 nM
Kd (His-NinH wt [4]): 43 nM

B2: DS60 (dsDNA)
DNA 1: TTTGGTCTAACTTTACCGCTACTAAATGCCGCGGATTGGTTTCGCTGAATCAGGTTATTA
DNA 2: TAATAACCTGATTCAGCGAAACCAATCCGCGGCATTTAGTAGCGGTAAAGTTAGACCAAA
binding result (NinH (native, untagged) [5]): binds

B3: BB5 (dsDNA)
DNA 1: TTTGGTCTAACTTTACCGCTACTAAATGCCGCGGATTGGTTTCGCTGAATCAGGTTATTA
DNA 2: TAATAACCTGATTCAGCGAAACCAATCGCAACCATTTAGTAGCGGTAAAGTTAGACCAAA
binding result (NinH (native, untagged) [6]; central 5 nt bubble): binds

B4: BT1 (dsDNA)
DNA 1: TTTGGTCTAACTTTACCGCTACTAAATGCCGCGGATTGGTTTCGCTGAATCAGGTTATTA
DNA 2: TAATAACCTGATTCAGCGAAACCAATCCAGCGGCATTTAGTAGCGGTAAAGTTAGACCAAA
binding result (NinH (native, untagged) [7]; 1 extra A bulge in strand 2): binds

B5: BB20 (dsDNA)
DNA 1: TTTGGTCTAACTTTACCGCTACTAAATGCCGCGGATTGGTTTCGCTGAATCAGGTTATTA
DNA 2: TAATAACCTGATTCAGCGAATGACCGATAACGTCCACTTGAGCGGTAAAGTTAGACCAAA
binding result (NinH (native, untagged) [6]; central 20 nt bubble): binds

B6: BT2 (dsDNA)
DNA 1: TTTGGTCTAACTTTACCGCTACTAAATGCCGCGGATTGGTTTCGCTGAATCAGGTTATTA
DNA 2: TAATAACCTGATTCAGCGAAACCAATCCAAGCGGCATTTAGTAGCGGTAAAGTTAGACCAAA
binding result (NinH (native, untagged) [7]; 2 extra A bulge in strand 2): binds

B7: BB13 (dsDNA)
DNA 1: TTTGGTCTAACTTTACCGCTACTAAATGCCGCGGATTGGTTTCGCTGAATCAGGTTATTA
DNA 2: TAATAACCTGATTCAGCGAAACATTGTAGGTAAGCTTAGTAGCGGTAAAGTTAGACCAAA
binding result (NinH (native, untagged) [6]; central 13 nt bubble): binds

B8: BT3 (dsDNA)
DNA 1: TTTGGTCTAACTTTACCGCTACTAAATGCCGCGGATTGGTTTCGCTGAATCAGGTTATTA
DNA 2: TAATAACCTGATTCAGCGAAACCAATCCAAAGCGGCATTTAGTAGCGGTAAAGTTAGACCAAA
binding result (NinH (native, untagged) [7]; 3 extra A bulge in strand 2): binds

B9: BB1 (dsDNA)
DNA 1: TTTGGTCTAACTTTACCGCTACTAAATGCCGCGGATTGGTTTCGCTGAATCAGGTTATTA
DNA 2: TAATAACCTGATTCAGCGAAACCAATCGGCGGCATTTAGTAGCGGTAAAGTTAGACCAAA
binding result (NinH (native, untagged) [6]; central 1 nt mismatch): binds

B10: N-His6-NinH (bacteriophage λ NinH, wild type) (natural protein)
chain: MTFSVKTIPDMLVEAYGNQTEVARRLKCSRGTVRKYVDDKDGKMHAIVNDVLMVHRGWSERDALLRKN
stoichiometry N [8]: 2

B11: DS50 (dsDNA)
DNA 1: GGCGACGTGATCACCAGATGATTGCTAGGCATGCTTTCCGCAAGAGAAGC
DNA 2: GCTTCTCTTGCGGAAAGCATGCCTAGCAATCATCTGGTGATCACGTCGCC
binding result (His-NinH wt [9]): binds

B12: Forked duplex FD (structured_DNA)
DNA 1: GGCGACGTGATCACCAGATGATTGCTAGGCATGCTTTCCGCAAGAGAAGC
DNA 2: GGCTTCTCTTGCGGAAAGCATGCCTAGCAATCCTGTCAGCTGCATGGAAC
binding result (His-NinH wt [10]): binds
